According to PMC4914101 (Nucleic Acids Research, 2016):
Changes are numbered by the printed parent chain. Like-named read-outs stand apart in the source and are kept apart here.

B1: SART3 HAT-C with Lα (residues 278–611) (domain or fragment, human, UniProt Q15020 278-611, looked up)
chain: PESVIQNYNKALQQLEKYKPYEEALLQAEAPRLAEYQAYIDFEMKIGDPARIQLIFERALVENCLVPDLWIRYSQYLDRQLKVKDLVLSVHNRAIRNCPWTVALWSRYLLAMERHGVDHQVISVTFEKALNAGFIQATDYVEIWQAYLDYLRRRVDFKQDSSKELEELRAAFTRALEYLKQEVEERFNESGDPSCVIMQNWARIEARLCNNMQKARELWDSIMTRGNAKYANMWLEYYNLERAHGDTQHCRKALHRAVQCTSDYPEHVCEVLLTMERTEGSLEDWDIAVQKTETRLARVNEQRMKAAEKEAALVQQEEEKAEQRKRARAEKKAL
B2: USP11^L4 (USP11 DUSP-UBL with the linker replaced by the USP4 linker) (domain or fragment, human, UniProt P51784 73-288, looked up)
chain: EELPGLDSQWRQIENGESGRERPLRAGESWFLVEKHWYKQWEAYVQGGDQDSSTFPGCINNATLFQDEINWRLKEGLVEGEDYVLLPAAAWHYLVSWYGLEHGQPPIERKVIEHGLFVKHCKVEVYPVELLLVRHNDLGKSHTVQFSHTDSIGLVLRTARERFLVEPQEDTRLWAKNSEGSLDRLYDTHITVLDAALETGQLIIMETRKKDGTWPSAQL
B3: USP11^L15 (USP11 DUSP-UBL with the linker replaced by the USP15 linker) (domain or fragment, human, UniProt P51784 73-288, looked up)
chain: B2 chain with H114Q, L116M
B4: DUSP-UBL domains of human USP15 (residues 1–226) (domain or fragment, UniProt Q9Y4E8 1-226, looked up)
chain: MAEGGAADLDTQRSDIATLLKTSLRKGDTWYLVDSRWFKQWKKYVGFDSWDKYQMGDQNVYPGPIDNSGLLKDGDAQSLKEHLIDELDYILLPTEGWNKLVSWYTLMEGQEPIARKVVEQGMFVKHCKVEVYLTELKLCENGNMNNVVTRRFSKADTIDTIEKEIRKIFSIPDEKETRLWNKYMSNTFEPLNKPDSTIQDAGLYQGQVLVIEQKNEDGTWPRGPST
B5: DUSP-UBL domains of human USP4 (residues 1–230) (domain or fragment, UniProt Q13107 1-230, looked up)
chain: MAEGGGCRERPDAETQKSELGPLMRTTLQRGAQWYLIDSRWFKQWKKYVGFDSWDMYNVGEHNLFPGPIDNSGLFSDPESQTLKEHLIDELDYVLVPTEAWNKLLNWYGCVEGQQPIVRKVVEHGLFVKHCKVEVYLLELKLCENSDPTNVLSCHFSKADTIATIEKEMRKLFNIPAERETRLWNKYMSNTYEQLSKLDNTVQDAGLYQGQVLVIEPQNEDGTWPRQTLQ

What was measured:
[1] = target: the molecule itself; test: crystal structure
[2] = target: T1, SART3 HAT repeat domain (residues 94–611) (human, UniProt Q15020 94-611); test: ITC
T1 sequence (looked up): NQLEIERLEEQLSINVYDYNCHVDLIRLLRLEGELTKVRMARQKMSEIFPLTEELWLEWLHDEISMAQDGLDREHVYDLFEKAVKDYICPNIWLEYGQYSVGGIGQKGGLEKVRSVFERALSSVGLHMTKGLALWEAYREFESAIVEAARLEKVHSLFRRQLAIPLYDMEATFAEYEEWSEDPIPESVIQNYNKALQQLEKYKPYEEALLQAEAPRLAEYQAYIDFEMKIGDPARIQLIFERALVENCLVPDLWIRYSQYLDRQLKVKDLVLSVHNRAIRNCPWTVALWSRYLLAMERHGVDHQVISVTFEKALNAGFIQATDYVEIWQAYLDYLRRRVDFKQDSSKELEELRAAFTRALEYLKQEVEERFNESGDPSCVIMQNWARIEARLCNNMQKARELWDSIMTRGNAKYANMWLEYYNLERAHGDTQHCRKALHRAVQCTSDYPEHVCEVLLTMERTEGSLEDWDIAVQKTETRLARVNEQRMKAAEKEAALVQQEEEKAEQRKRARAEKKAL

[3] = target: mouse importin-α2 (residues 70–498) (mouse, UniProt P52293 70-498); test: ITC
[4] = target: B1; test: ITC
[5] = target: T1, SART3 HAT repeat domain (residues …); test: ITC; remark: listed apart in the source

| Binder | Kd [2] [nM] | dH [2] [kcal/mol] | stoichiometry N [2] | Kd [4] [nM] | dH [4] [kcal/mol] | stoichiometry N [4] | Kd [5] [nM] | dH [5] [kcal/mol] | stoichiometry N [5] | further results |
| --- | --- | --- | --- | --- | --- | --- | --- | --- | --- | --- |
| B1 | – | – | – | – | – | – | – | – | – | binding result [1]: binds |
| B2 | 20100 ± 4360 | -9.1 ± 0.4 | 0.89 ± 0.15 | – | – | – | – | – | – | – |
| B3 | 18700 ± 2250 | -5.7 ± 0.7 | 1.06 ± 0.09 | – | – | – | – | – | – | – |
| RKRARAEKKALKKKKKIRGPEKRGADEDDEKEWGDDEEEQPSKRRRVEN (domain or fragment) [SART3 NLS (residues 601–649)] | – | – | – | – | – | – | – | – | – | Kd [3]: 210 ± 10 nM; dH [3]: -8.6 ± 0.2 kcal/mol; stoichiometry N [3]: 1.01 ± 0.01 |
| B4 | – | – | – | 140 ± 60 | -17.7 ± 0.5 | 1.09 ± 0.01 | 190 ± 40 | -16.1 ± 0.1 | 0.99 ± 0.01 | – |
| B5 | – | – | – | 580 ± 30 | -21.1 ± 0.4 | 1.05 ± 0.01 | 880 ± 130 | -21.6 ± 0.6 | 1.07 ± 0.02 | – |
